{"source": "patent US20230189844", "key": {"[1]": {"molecular_target": "T1, Soy Bowman-Birk Inhibitor, P01055", "T1 chain": "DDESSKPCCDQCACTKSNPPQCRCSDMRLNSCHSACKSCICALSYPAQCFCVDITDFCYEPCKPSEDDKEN"}, "[2]": {"molecular_target": "T2, Soy Kunitz Inhibitor (Trypsin Inhibitor from soybean), P01070", "T2 chain": "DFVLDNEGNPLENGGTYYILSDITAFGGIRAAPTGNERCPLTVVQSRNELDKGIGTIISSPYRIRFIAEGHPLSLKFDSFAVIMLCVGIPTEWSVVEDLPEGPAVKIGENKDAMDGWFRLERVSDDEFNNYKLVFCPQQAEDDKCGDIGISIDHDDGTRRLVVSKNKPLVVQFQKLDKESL"}, "[3]": {"molecular_target": "Soybean agglutinin (SBA), P05046", "sequence (P05046 33-285)": "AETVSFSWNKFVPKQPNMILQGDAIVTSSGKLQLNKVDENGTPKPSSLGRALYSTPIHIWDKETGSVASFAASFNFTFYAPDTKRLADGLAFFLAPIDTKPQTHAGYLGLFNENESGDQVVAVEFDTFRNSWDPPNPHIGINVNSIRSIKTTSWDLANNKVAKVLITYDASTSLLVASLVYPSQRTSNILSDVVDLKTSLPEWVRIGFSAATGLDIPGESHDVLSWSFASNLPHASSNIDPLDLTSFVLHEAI"}}}
{"protein": "Protease derived from Nocardiopsis sp. NRRL 18262 (an acid-stable protease) (protein) ADIIGGLAYTMGGRCSVGFAATNAAGQPGFVTAGHCGRVGTQVTIGNGRGVFEQSVFPGNDAAFVRGTSNFTLTNLVSRYNTGGYATVAGHNQAPIGSSVCRSGSTTGWHCGTIQARGQSVSYPEGTVTNMTRTTVCAEPGDSGGSYISGTQAQGVTSGGSGNCRTGGTTFYQEVTPMVNSWGVRLRT", "values": [{"measurement": "% of anti-nutritional factor degraded (SDS-PAGE band disappearance, 2 hours, 37° C., pH 6.5)", "setting": "[1]", "result": 25, "unit": "%"}, {"measurement": "% of anti-nutritional factor degraded (SDS-PAGE band disappearance, 2 hours, 37° C., pH 6.5)", "setting": "[2]", "result": 100, "unit": "%"}, {"measurement": "% of anti-nutritional factor degraded (SDS-PAGE band disappearance, 2 hours, 37° C., pH 6.5)", "setting": "[3]", "result": 75, "unit": "%"}]}
